Consider ten molecules from patent US20070232520A1 (YEDA RESEARCH AND DEVELOPMENT, published 2007).

B1: protein encoded by the 230 clone (other)
chain: GPIREAGLAGWLALGCSGPPAEAAGGAGEPWPQHSGKGQLAGRNAWVKKRKAPRENSPGVRSCRASGRASRPHGDPFLLTLPRARHPVTLNVTIQVSLKQRNVRFNTPFRRGEN
notes: 114 amino acid residues; HeLa cDNA clone in pGAD-GH; GAL4 part not written
B2: truncated p55-IC from which the death domain had been deleted (construct 206-328) (receptor)
chain: RYQRWKSKLYSIVCGKSTPEKEGELEGTTTKPLAPNPSFSPTPGFTPTLGFSPVPSSTFTSSSTYTPGDCPNFAAPRREVAPPYQGADPILATALASDPIPNPLQKWEDSAHKPQSLDTDDPA
notes: GAL4 part not written
B3: E3 (p75IC-binding protein encoded by clone E3) (other)
chain: TFKIRMEPDETVKVLKEKIEAEKGRDAFPVAGQKLIYAGKILSDDVPIRDYRIDEKNFVVVMVTKTKAGQGTSAPPEASPTAAPESSTSFPPAPTSGMSHPPPAAREDKSPSEESTPTPEQEPCLZ
notes: GAL4 part not written; for coprecipitation expressed in HeLa cells from pUHD10-3
B4: p55-IC construct from which both the death domain and a membrane proximal part were deleted (construct 243-328) (receptor)
chain: SFSPTPGFTPTLGFSPVPSSTFTSSSTYTPGDCPNFAAPRREVAPPYQGADPILATALASDPIPNPLQKWEDSAHKPQSLDTDDPA
notes: GAL4 part not written
B5: full-length intracellular domain of the p55-TNF-R (p55IC) (receptor)
chain: RYQRWKSKLYSIVCGKSTPEKEGELEGTTTKPLAPNPSFSPTPGFTPTLGFSPVPSSTFTSSSTYTPGDCPNFAAPRREVAPPYQGADPILATALASDPIPNPLQKWEDSAHKPQSLDTDDPATLYAVVENVPPLRWKEFVRRLGLSDHEIDRLELQNGRCLREAQYSMLATWRRRTPRREATLELLGRVLRDMDLLGCLEDIEEALCGPAALPPAPSLLR
notes: the GAL4 part is not written as a piece; also called pGBT9-IC55; IC55
B6: 55.3 (protein fragment 55.3 of the p55IC, residues 277-426) (receptor)
chain: NFAAPRREVAPPYQGADPILATALASDPIPNPLQKWEDSAHKPQSLDTDDPATLYAVVENVPPLRWKEFVRRLGLSDHEIDRLELQNGRCLREAQYSMLATWRRRTPRREATLELLGRVLRDMDLLGCLEDIEEALCGPAALPPAPSLLR
B7: mouse Fas/APO1 intracellular domain (FAS-IC, residues 166-306) (receptor, UniProt P25446 187-327, looked up)
chain: RKYRKRKCWKRRQDDPESRTSSRETIPMNASNLSLSKYIPRIAEDMTIQEAKKFARENNIKEGKIDEIMHDSIQDTAEQKVQLLLCWYQSHGKSDAYQDLIKGLKKAECRRTLDKFQDMVQKDLGKSTPDTGNENEGQCLE
notes: range 166-306; GAL4 hybrid constructs; also called murine FAS-IC; mouse FAS-IC
B8: 55.1 (protein fragment 55.1 of the p55IC, residues 328-426, the death domain) (receptor)
chain: ATLYAVVENVPPLRWKEFVRRLGLSDHEIDRLELQNGRCLREAQYSMLATWRRRTPRREATLELLGRVLRDMDLLGCLEDIEEALCGPAALPPAPSLLR
notes: also called death domain of human p55-R
B9: E19 (p75IC-binding protein encoded by clone E19) (other)
chain: EAAGRERERTLEYAEAHAFKSPSKENKKKDKDMLEDKFKSNNLEREQEQLDRIVKESGGKLTRRLVNSQCEFERRKPDGTTTLGLLHPVDPIVGEPGYCPVRLGMTTGRLQSGVNTLQGFKEDKRNKVTPVLYLELWAPTVLYAPHYDSTFANYQQGLI
notes: HeLa cDNA clone in pGAD-GH; GAL4 part not written
B10: C terminally truncated p55-IC (construct 206-308) (receptor)
chain: RYQRWKSKLYSIVCGKSTPEKEGELEGTTTKPLAPNPSFSPTPGFTPTLGFSPVPSSTFTSSSTYTPGDCPNFAAPRREVAPPYQGADPILATALASDPIPNP
notes: GAL4 part not written

Data set [1] addresses B5. As to the kind of experiment: yeast two-hybrid (SFY526), various baits.
The target in data set [2] is T1, 55.11 protein, partial (residues 309-900, as originally isolated), GAL4 activation-domain hybrid (human, UniProt Q13200 318-899). In words: yeast two-hybrid beta-galactosidase filter assay (SFY526), FIG. 13.
For data set [3], the target named is T1, 55.11 protein, partial (residues …). As to the kind of experiment: yeast two-hybrid, colony colour (lacZ/X-gal).
Data set [4] has as its target T2, 55.11 protein, partial (residues 309-900), VP16 activation-domain hybrid (human, UniProt Q13200 318-899).
T2 construct: the VP16 part is not written; also called VP16AD
In words: yeast two-hybrid beta-galactosidase filter assay (SFY526), FIG. 13.

Data set [5] has as its target T3, 55.11 construct 309-680 (C-terminal truncation) (human, UniProt Q13200 318-689).
T3 construct: GAL4 part not written
Described as above.

The target in data set [6] is T4, 55.11 construct 457-900 (N-terminal truncation) (human, UniProt Q13200 466-899).
T4 construct: GAL4 part not written
The data set is described as above.

Data set [7] addresses B5. As to the kind of experiment: yeast two-hybrid (SFY526), liquid beta-galactosidase assay.
Data set [8] deals with T5, lamin (irrelevant protein).
T5 construct: Two-hybrid control bait; also called pACT-Lamin
Described as above.

For data set [9], the target named is T6, pGBT9 (vector alone) (UniProt P04386 1-147).
T6 construct: Negative control bait; also called empty bait vector; empty Gal4 (pGBT9) vector
Described as above.

Data set [10] deals with the molecule itself. In words: yeast two-hybrid beta-galactosidase test (FIG. 14).
The target in data set [11] is T6, pGBT9 (vector alone). As to the kind of experiment: yeast two-hybrid, colony colour (lacZ/X-gal).

T1 sequence (Q13200 other isoform, or with tags, fused parts or gaps): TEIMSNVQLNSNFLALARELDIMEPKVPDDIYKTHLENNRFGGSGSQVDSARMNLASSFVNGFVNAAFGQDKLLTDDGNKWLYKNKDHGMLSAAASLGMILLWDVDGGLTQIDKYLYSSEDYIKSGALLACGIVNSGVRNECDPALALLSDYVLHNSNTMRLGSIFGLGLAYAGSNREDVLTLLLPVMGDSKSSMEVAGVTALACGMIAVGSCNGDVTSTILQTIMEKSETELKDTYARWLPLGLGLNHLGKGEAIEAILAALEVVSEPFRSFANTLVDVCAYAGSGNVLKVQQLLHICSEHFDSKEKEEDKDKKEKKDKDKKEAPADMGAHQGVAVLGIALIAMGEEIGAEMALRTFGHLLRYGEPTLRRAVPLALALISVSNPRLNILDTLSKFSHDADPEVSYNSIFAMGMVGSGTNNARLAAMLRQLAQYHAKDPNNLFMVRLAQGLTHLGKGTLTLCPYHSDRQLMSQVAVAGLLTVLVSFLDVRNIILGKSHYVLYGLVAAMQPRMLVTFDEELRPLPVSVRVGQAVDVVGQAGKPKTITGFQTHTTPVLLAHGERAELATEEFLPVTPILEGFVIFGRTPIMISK
T6 sequence (P04386 1-147 limits assumed): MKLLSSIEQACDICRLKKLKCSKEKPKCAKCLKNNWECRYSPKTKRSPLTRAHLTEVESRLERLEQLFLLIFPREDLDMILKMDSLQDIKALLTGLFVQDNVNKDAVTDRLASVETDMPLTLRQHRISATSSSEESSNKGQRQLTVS
T4 sequence (Q13200 other isoform, or with tags, fused parts or gaps): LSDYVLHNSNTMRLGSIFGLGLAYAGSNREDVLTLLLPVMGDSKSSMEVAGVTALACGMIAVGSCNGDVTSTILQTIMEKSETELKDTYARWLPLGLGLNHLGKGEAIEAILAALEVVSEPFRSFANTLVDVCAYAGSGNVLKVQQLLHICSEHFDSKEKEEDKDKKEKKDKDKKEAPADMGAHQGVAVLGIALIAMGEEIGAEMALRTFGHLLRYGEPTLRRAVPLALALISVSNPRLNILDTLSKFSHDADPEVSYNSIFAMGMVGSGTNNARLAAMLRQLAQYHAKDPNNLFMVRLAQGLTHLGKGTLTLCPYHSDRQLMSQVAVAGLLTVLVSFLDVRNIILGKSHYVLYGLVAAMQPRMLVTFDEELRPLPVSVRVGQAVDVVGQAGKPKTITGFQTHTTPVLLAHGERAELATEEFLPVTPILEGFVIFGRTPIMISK
T3 sequence (Q13200 318-689): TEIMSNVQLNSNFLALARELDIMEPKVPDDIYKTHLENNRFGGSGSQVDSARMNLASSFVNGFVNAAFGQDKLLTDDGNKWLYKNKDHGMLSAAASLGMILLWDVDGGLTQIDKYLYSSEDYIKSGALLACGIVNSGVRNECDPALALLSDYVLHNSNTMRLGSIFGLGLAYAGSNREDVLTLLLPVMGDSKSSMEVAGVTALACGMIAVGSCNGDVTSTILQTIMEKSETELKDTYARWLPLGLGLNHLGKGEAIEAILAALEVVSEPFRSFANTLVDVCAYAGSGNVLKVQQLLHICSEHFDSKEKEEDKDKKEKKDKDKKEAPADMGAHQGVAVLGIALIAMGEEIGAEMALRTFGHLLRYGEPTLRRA

For the molecule B1, the binding result in data set [1] was “no binding”.
In the case of B2, the binding result in [2] is “binds”.
Consider B3, for which the binding result in [1] is recorded as “no binding”.
Turning to B4, in [2], the binding result was “binds”.
For B5, the binding result in [3] is recorded as “binds”; in [4] it was “binds”; in [5], “no binding (tested: no development of color within 24 h)”; in [6] it was “no binding (tested: no development of color within 24 h)”.
With B6, the “Lac Z Activity in Liquid Culture Assay” value in [7] came to 0.04; in [8], 0; in the data set with pGBT9 (vector alone) [9], 0.
As to B7, the binding result in [10] was “binds”.
With B8, the binding result with pGBT9 (vector alone) [11] was “no binding”. In addition, the “Lac Z Activity in Liquid Culture Assay” value in [7] was determined as 0.65; in data set [8], 0; with pGBT9 (vector alone) [9], 0.
For the molecule B9, in data set [1], the binding result is “no binding”.
Regarding B10, in data set [2], the binding result is “binds”.
